The values below come from patent US20190070251A1.

For assay [1], the target named is GPR54 G-Protein coupled receptor (cloned human GPR54) (human) (UniProt Q969F8). The assay is described as follows: cell-based or functional assay.
Assay [2] addresses human δ opioid receptor (human) (UniProt P41143). Nature of the assay: Kd of the radioligand, previously determined under these assay conditions; membranes of CHO-K1 cells with recombinant human δ opioid receptor (biphalin series).
The target is the same in assay [3]. The assay is described as follows: Kd of the radioligand, previously determined under these assay conditions; membranes of CHO-K1 cells with recombinant human δ opioid receptor (OGF series).

Sequence of human δ opioid receptor (human) (P41143 whole entry, stated change not applied): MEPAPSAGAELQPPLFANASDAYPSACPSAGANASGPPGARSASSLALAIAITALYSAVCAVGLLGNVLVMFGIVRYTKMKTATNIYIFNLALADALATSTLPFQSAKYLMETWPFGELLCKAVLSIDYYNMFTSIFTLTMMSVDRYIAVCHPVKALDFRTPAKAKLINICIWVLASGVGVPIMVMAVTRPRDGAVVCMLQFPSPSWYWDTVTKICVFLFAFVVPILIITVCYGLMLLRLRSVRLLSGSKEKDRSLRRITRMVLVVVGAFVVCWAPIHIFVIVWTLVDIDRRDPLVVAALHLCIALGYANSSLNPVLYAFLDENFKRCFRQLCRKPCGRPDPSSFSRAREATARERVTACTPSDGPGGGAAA

Kisspeptin-10 (peptide): in assay [1], the EC50 (nM) of agonist activation at GPR54 (FLIPR calcium flux) was found to be 10 nM and the Fold change compared to metastin is 1 fold.
Consider “mono-[mPEG-SBC-30K]-[Kisspeptin-10] (peptide)”, for which the EC50 (nM) of agonist activation at GPR54; time of release 2 h in assay [1] was 200 nM.
Regarding [3H] DPDPE (peptide), the Kd – broadly, a measure of binding affinity in units of concentration – turned out to be 3.9 nM in assay [2] and 3 nM in assay [3].
